Test results: article PMC6093860
Like-named read-outs stand apart in the source and are kept apart here.

Key:
[1] = target: human complement component 9 (C9), wild type (human); experiment: cryo-EM structure; polyC9 formed from purified human C9 at 1.1-1.5 mg mL^-1 in 10 mM HEPES pH 7.5, 50 mM NaCl with amphipol A8-35 (0.015-0.02 mg mL^-1), 37 °C overnight; ring of C9 subunits
[2] = target: human complement component 9 (C9), wild type (human); experiment: as above; remark: listed apart in the source

stoichiometry N [1]: 22 | stoichiometry N [2]: 21
Substance: human complement component 9 (C9), wild type (natural protein)
